Entries after “also recorded” stand apart in the source; their conditions may differ.
System: myelin basic protein (MBP)
Test: Myelin basic protein (MBP) Western blot in hippocampal slice cultures
Format: cell-based, rat
Procedure: FIGS. 14A-14C. Reduced myelin basic protein (MBP) from SD depends on IFN-γ/T-cell activation and sphingomylinase. […] Thus, confirming involvement of T cells.
FIGS. 15A-15C. Physiological and transient elevation [i.e., phasic (see FIG. 1)] of IFN-γ triggers completely opposite effects. Transient (i.e., 500 U/mL×12 hours; all groups n≥5) exposure of hippocampal slice cultures was nutritive when assessed seven days later.

B1: Interferon-gamma (protein, listed as Homo sapiens)
chain: MKYTSYILAFQLCIVLGSLGCYCQDPYVKEAENLKKYFNAGHSDVADNGTLFLGILKNWKEESDRKIMQSQIVSFYFKLFKNFKDDQSIQKSVETIKEDMNVKFFNSNKKKRDDFEKLTNYSVTDLNVQRKAIHELIQVMAELSPAAKTGKRKRSQMLFRGRRASQ
MBP levels (IFN-γ with co-administration of TNF-α (100 ng/mL)): further decline in MBP
MBP levels (chronically applied IFN-γ 500 U/mL × 24 hours): reduce MBP levels
MBP versus baseline (transient (pulsed) IFN-γ 500 U/mL × 12 hours, assessed seven days later): MBP rises above baseline; also recorded: increased above baseline
